# Data reported in paper PMC7772510 (Molecules and Cells, 2020).
# T1: His6-αX I-domain (UniProt P20702 146-332)
# T1 sequence (looked up): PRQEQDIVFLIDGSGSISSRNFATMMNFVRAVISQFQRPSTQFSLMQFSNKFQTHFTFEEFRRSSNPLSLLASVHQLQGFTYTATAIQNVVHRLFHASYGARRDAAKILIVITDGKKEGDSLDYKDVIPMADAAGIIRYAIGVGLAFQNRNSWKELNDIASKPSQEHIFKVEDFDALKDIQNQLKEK
# Biological target: T1, His6-αX I-domain
# Experiment: ELISA
binder,measurement,value
"NLDEDIIAEENIVSRSEFPESWLWNV (domain or fragment, human, UniProt P01024 750-775, looked up) [GST-αNTN]",binding result,binds
